B1: Ab11 (antibody, IgG4, V domains shown)
VH: EVQLLESGGGLVQPGGSLRLSCAASGFTFRNYAMSWVRQAPGKGLEWVSSISGSGGATYYADSVKGRFTISRDNSKNTLYLQMNSLRAEDTAVYYCARVSSGHWDFDYWGQGTLVTVSS
VL: DIQLTQSPSSLSASVGDRVTITCRASQSISSYLNWYQQKPGKAPKLLIYAASNLQSGVPSRFSGSGSGTDFTLTISSLQPEDFATYYCQQTYTVPLTFGGGTKVEIK
B2: Ab2 (antibody, V domains shown)
VH: B1 VH with R30A, N31D, S35T, S50A, G56A, Y60F
VL: DIQLTQSPSSLSASVGDRVTITCRASQSISSYLNWYQQKPGKAPKLLIYAASNLQSGVPSRFSGSGSGTDFTLTISSLQPEDFATYYCQQTYTVPLTFGGGTKVEIKR
B3: Ab35 (antibody, IgG4, V domains shown)
VH: B1 VH with G102Y, H103L
VL: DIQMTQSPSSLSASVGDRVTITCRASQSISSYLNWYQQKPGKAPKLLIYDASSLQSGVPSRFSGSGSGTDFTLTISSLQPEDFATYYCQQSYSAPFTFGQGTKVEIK
B4: Ab12 (antibody, IgG4, V domains shown)
VH: B1 VH with E1Q, L5V, L11V, G16R, R30S, N31D, S35V, S50A, G56F, A57T
VL: B1 VL
B5: Ab19 (antibody, IgG4, V domains shown)
VH: QVQLVESGGGVVQPGRSLRLSCAASGFTFSSFAMTWVRQAPGKGLEWVSAISGSGAATYFADSVKGRFTISRDNSKNTLYLQMNSLRAEDTAVYYCARVSSGHWDFDEWGQGTLVTVSS
VL: B1 VL
B6: Ab20 (antibody, IgG4, V domains shown)
VH: B1 VH with R30S, N31A, S35T, S50A, A57V, F106Y
VL: B1 VL
B7: Ab26 (antibody, IgG4, V domains shown)
VH: EVQLVESGGGLVQPGGSLRLSCAASGFTFSSFSMDWVRQAPGKGLEWVSYISPDASTIYYADSVKGRFTISRDNAKNTLYLQMNSLRAEDTAVYYCARGVLDYGDMLDPWGQGTLVTVSS
VL: DIQMTQSPSSLSASVGDRVTITCQASQDITNYLNWYQQKPGKAPKLLIYDASNLETGVPSRFSGSGSGTDFTFTISSLQPEDIATYYCQQADNHPPWTFGGGTKVEIK
B8: Ab33 (antibody, IgG4, V domains shown)
VH: B7 VH with D35N, D54S, S56D, R98H
VL: B7 VL
B9: Ab29 (antibody, IgG4, V domains shown)
VH: B7 VH with G16R, S33A, D35N, D62G, T78S, A97V, G99A
VL: B7 VL

Numbering of substitutions follows the chain as printed.

Broadly, the Kd is the free concentration of one partner at which half of the binding sites on the other are occupied at equilibrium, for simple one-to-one binding.

hLRRC33-proTGFβ1 presented on cells, sequence (P01137 30-390 limits assumed, chain 1 of 2): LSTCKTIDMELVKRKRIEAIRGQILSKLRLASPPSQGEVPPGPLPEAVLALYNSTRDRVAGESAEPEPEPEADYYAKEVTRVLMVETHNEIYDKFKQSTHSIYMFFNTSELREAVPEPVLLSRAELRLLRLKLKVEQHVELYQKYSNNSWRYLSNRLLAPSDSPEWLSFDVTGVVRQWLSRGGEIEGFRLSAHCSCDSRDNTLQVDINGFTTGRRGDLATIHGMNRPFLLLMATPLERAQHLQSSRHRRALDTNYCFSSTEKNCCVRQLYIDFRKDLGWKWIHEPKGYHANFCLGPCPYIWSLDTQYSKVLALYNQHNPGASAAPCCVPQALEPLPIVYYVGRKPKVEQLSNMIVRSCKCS
hLRRC33-proTGFβ1 presented on cells, sequence (Q86YC3 19-692 limits assumed, chain 2 of 2): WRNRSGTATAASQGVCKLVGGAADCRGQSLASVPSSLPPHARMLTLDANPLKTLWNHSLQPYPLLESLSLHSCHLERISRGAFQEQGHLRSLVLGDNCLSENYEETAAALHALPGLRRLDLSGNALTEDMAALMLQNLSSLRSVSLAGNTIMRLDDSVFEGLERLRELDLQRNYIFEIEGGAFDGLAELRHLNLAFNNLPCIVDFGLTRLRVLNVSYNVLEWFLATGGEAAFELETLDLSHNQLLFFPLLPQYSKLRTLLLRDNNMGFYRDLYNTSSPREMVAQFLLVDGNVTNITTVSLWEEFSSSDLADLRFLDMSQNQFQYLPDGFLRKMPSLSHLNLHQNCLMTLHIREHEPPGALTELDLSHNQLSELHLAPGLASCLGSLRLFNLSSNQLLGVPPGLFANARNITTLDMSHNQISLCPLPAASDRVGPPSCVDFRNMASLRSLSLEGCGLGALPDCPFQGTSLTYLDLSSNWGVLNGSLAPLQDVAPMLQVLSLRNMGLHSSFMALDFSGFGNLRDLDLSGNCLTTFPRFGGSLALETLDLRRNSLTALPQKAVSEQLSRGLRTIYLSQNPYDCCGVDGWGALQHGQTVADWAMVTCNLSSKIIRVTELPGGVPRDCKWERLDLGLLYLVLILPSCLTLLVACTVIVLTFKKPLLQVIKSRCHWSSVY
hLTBP1-proTGFβ1 as produced in the cell-based activation assay, sequence (P01137 30-390 limits assumed, chain 1 of 2): as the sequence (P01137 30-390 limits assumed, chain 1 of 2) above
hLTBP1-proTGFβ1 as produced in the cell-based activation assay, sequence (Q14766 347-1721 limits assumed, chain 2 of 2): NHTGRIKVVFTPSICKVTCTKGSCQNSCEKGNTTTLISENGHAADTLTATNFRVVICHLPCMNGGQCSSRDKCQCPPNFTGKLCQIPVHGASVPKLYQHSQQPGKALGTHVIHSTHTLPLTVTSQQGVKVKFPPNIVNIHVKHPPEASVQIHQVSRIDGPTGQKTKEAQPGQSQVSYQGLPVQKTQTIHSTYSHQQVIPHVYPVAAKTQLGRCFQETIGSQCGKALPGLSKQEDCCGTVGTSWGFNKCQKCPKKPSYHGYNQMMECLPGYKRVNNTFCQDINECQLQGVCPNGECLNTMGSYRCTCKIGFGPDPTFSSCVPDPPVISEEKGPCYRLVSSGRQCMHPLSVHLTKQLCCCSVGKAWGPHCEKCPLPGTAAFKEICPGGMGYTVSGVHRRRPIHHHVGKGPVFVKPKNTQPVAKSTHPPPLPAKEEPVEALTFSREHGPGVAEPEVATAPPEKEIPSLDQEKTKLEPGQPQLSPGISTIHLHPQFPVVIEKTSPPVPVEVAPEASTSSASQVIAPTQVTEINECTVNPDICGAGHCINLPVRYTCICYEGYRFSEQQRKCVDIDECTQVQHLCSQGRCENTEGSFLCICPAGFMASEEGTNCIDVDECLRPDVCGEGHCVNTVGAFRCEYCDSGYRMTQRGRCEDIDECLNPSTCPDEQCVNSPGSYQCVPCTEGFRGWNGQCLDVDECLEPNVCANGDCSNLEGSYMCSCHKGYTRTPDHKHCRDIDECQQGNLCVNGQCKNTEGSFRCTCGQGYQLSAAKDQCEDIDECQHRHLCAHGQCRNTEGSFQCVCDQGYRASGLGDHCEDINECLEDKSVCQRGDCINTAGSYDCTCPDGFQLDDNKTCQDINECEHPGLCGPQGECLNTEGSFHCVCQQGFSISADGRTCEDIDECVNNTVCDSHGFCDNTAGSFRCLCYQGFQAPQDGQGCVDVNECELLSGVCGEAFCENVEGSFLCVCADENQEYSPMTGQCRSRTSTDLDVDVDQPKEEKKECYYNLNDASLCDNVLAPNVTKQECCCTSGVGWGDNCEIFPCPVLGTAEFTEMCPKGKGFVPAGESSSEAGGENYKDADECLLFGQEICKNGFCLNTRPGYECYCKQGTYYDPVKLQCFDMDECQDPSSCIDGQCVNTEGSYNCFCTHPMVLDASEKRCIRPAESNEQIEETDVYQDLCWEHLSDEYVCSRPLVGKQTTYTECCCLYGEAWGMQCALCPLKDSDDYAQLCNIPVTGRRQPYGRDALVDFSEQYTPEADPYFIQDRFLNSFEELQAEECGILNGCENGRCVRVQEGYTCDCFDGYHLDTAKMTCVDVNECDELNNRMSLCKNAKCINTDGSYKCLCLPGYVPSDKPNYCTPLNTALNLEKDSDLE

The first assay deals with T1, human GARP-proTGFβ1 complex (human, UniProt P01137 30-390; Q14392 20-627).
T1 construct: also called hGARP-proTGFβ1; hGARP
T1 sequence (P01137 30-390, chain 1 of 2): as the sequence (P01137 30-390 limits assumed, chain 1 of 2) above
T1 sequence (Q14392 20-627, chain 2 of 2): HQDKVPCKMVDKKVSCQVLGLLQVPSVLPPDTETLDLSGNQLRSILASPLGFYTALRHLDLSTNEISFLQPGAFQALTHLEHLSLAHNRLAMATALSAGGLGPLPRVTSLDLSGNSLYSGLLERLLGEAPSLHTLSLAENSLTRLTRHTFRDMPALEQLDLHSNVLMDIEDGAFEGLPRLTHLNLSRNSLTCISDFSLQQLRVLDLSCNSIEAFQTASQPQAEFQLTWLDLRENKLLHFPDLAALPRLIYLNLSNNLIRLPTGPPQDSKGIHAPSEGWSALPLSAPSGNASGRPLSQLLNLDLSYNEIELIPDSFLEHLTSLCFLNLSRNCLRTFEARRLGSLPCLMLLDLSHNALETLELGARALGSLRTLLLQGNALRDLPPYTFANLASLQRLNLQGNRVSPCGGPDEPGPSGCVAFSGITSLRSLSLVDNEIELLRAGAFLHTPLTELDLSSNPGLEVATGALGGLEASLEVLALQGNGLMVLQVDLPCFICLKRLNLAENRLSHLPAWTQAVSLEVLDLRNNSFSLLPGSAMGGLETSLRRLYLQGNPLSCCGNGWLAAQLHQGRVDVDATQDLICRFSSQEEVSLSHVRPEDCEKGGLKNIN
In words: BLI (Octet). The protocol:
(§1) The affinity of anti-TGFβ1 antibodies was measured by Octet@ assay on human proTGFβ1 cells, while activity was measured by CAGA12 reporter cells testing human proTGFβ1 inhibition.
B1 yielded a Kd of 0.842 nM.
The molecule B2 registered a Kd of 0.778 nM.
Molecule B3 returned a Kd of 7.37 nM.
Still for that read-out and setting: next, B4: 7.01 nM; B5: 11.2 nM; B6: 0.884 nM.
For the molecule B7, the Kd was determined as 0.625 nM.
On the same count and under the same terms, the value for B8 was 0.265 nM.
B9 yielded a Kd of 0.307 nM.

In another assay the target is T2, human LRRC33-proTGFβ1 complex (human, UniProt P01137 30-390; Q86YC3 19-650).
T2 construct: also called hLRRC33-proTGFβ1; hLRRC33
T2 sequence (P01137 30-390 limits assumed, chain 1 of 2): as the sequence (P01137 30-390 limits assumed, chain 1 of 2) above
T2 sequence (Q86YC3 other isoform, or with tags, fused parts or gaps limits assumed, chain 2 of 2): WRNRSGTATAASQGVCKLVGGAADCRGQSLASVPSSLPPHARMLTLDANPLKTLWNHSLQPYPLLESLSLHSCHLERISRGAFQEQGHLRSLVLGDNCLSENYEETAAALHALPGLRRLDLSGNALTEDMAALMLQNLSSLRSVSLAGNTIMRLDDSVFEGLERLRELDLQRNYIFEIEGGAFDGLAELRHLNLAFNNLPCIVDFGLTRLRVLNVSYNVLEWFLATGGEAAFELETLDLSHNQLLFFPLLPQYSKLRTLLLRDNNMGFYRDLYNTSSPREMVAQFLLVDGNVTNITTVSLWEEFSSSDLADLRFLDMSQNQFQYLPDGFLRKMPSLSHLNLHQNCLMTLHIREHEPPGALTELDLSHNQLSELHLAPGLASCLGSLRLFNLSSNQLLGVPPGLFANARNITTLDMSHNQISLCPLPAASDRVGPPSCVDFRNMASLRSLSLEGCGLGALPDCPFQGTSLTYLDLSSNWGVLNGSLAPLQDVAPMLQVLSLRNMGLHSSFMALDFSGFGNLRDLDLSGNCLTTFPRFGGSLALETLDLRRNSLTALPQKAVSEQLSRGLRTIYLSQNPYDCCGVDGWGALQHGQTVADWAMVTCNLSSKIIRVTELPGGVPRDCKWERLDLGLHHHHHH
Nature of the assay: BLI (Octet). The protocol:
as §1
(BLI is a label-free optical method that tracks binding on a fibre tip over time.)
B1 gave a Kd of 0.555 nM.
B2 returned a Kd of 0.508 nM.
In the case of B3, binding was characterised by a dissociation constant (Kd) of 0.545 nM.
On the same count and under the same terms, the value for B4 was 0.775 nM; that for B5 was 0.692 nM.
In turn, B6 had a Kd of 0.545 nM.
For the molecule B7, the Kd came to 0.36 nM.
As to B8, binding was put at a Kd of 0.339 nM.
Turning to B9, binding was characterised by a dissociation constant (Kd) of 0.302 nM.

The target in a further assay is hGARP-proTGFβ1 presented on cells (human, UniProt P01137 30-390; Q14392 20-662). Nature of the assay: cell-based or functional assay.
hGARP-proTGFβ1 presented on cells, sequence (P01137 30-390 limits assumed, chain 1 of 2): as the sequence (P01137 30-390 limits assumed, chain 1 of 2) above
hGARP-proTGFβ1 presented on cells, sequence (Q14392 20-662 limits assumed, chain 2 of 2): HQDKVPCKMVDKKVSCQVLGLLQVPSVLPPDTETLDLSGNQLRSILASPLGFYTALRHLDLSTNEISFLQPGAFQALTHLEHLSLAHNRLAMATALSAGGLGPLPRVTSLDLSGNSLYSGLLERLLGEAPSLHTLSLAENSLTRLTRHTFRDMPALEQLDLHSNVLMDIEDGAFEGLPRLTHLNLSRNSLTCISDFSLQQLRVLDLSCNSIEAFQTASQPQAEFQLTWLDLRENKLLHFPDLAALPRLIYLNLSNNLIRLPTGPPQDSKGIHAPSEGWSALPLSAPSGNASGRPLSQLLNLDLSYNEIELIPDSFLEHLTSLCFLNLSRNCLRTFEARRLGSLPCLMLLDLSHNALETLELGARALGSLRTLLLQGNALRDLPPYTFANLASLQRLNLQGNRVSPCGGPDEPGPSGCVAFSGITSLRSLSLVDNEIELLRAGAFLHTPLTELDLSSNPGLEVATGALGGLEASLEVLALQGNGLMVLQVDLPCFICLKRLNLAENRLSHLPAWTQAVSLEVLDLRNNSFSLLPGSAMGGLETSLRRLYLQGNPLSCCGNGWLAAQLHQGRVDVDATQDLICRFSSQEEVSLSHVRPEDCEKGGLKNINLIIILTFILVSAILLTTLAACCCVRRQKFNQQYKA
For the molecule B1, the “IC50, reporter cell assay” value came out at 0.79 nM.
For B2, the “IC50, reporter cell assay” value turned out to be 0.776 nM.
As to B3, the “IC50, reporter cell assay” value was determined as 3.71 nM.
Regarding B4, the “IC50, reporter cell assay” value turned out to be 1.08 nM.
For the molecule B5, the “IC50, reporter cell assay” value was 1.34 nM.
As to B6, the “IC50, reporter cell assay” value was 0.387 nM.
Regarding B7, the “IC50, reporter cell assay” value is 0.262 nM.
Same read-out and setting: next, B8: 0.198 nM; B9: 0.264 nM.

The target of another assay is hLTBP3-proTGFβ1 as produced in the cell-based activation assay (human, UniProt P01137 30-390; Q9NS15 44-1303). In words: cell-based or functional assay.
With B1, the “IC50, reporter cell assay” value came out at 1.56 nM.
Consider B2, for which the “IC50, reporter cell assay” value is 0.867 nM.
As to B3, the “IC50, reporter cell assay” value amounted to 2.71 nM.
For B4, the “IC50, reporter cell assay” value is 1.55 nM.
Take B5: the “IC50, reporter cell assay” value came to 1.6 nM.
B6: the “IC50, reporter cell assay” value worked out at 1.18 nM.
On to B7, for which the “IC50, reporter cell assay” value turned out to be 0.716 nM.
For the molecule B8, the “IC50, reporter cell assay” value came out at 1.11 nM.
On the same count and under the same terms, next, B9: 0.803 nM.

A further assay has as its target hLTBP1-proTGFβ1 as produced in the cell-based activation assay (human, UniProt P01137 30-390; Q14766 347-1721). Nature of the assay: cell-based or functional assay.
B1: the “IC50, reporter cell assay” value came to 2.95 nM.
B2: the “IC50, reporter cell assay” value was 3.39 nM.
In the case of B3, the “IC50, reporter cell assay” value was found to be 6.25 nM.
For B4, the “IC50, reporter cell assay” value stood at 3.79 nM.
For B5, the “IC50, reporter cell assay” value was 1.66 nM.
Same read-out and setting: the value for B6 was 1.85 nM.
Turning to B7, the “IC50, reporter cell assay” value stood at 0.713 nM.
Consider B8, for which the “IC50, reporter cell assay” value came out at 1.56 nM.
Consider B9, for which the “IC50, reporter cell assay” value was 0.471 nM.

A further assay has as its target hLRRC33-proTGFβ1 presented on cells (human, UniProt P01137 30-390; Q86YC3 19-692). Nature of the assay: cell-based or functional assay.
Turning to B1, the “IC50, reporter cell assay” value was found to be 1.27 nM.
Take B2: the “IC50, reporter cell assay” value is 1.38 nM.
As to B3, the “IC50, reporter cell assay” value came to 5.37 nM.
Regarding B4, the “IC50, reporter cell assay” value is 2.43 nM.
Consider B5, for which the “IC50, reporter cell assay” value was 0.401 nM.
The same measure, in the same setting: the value for B6 was 1.35 nM.
In the case of B7, the “IC50, reporter cell assay” value was found to be 0.341 nM.
In the case of B8, the “IC50, reporter cell assay” value came out at 0.738 nM.
For the molecule B9, the “IC50, reporter cell assay” value is 0.458 nM.

The target of a further assay is T1, human GARP-proTGFβ1 complex. Nature of the assay: MSD-SET, hIgG4. On the procedure: (§2) MSD-SET assays were performed to measure affinities of the antibodies at equilibrium. Briefly, each test antibody was diluted 3-5 fold and samples were mixed with biotinylated antigen in a 48-well dish. The SET samples were equilibrated for 20-24 hours at room temperature. Meanwhile, a capture plate was coated with IgG (20 nM) and incubated overnight at 4° C. or 30 minutes at room temperature, followed by a blocking step with 5% BSA. After the capture plate was washed three times, SET samples were added and incubated for 150 seconds. The plate was washed once to remove unbound complexes. 250 ng/ml SA-Sulfotag was added then washed 3 times. 2× Read Buffer was added, and signals from the labeled bound complexes were read with the use of QuickPlex™ SQ 120 instrument.
B1 returned a Kd of 3 nM.
B2 registered a Kd of 1.4 nM.
Still for that read-out and setting: the value for B3 was 1.1 nM.
Molecule B4 had a Kd of 1.7 nM.
For the molecule B5, binding was put at a Kd of 3.8 nM.
Consider B6, for which the dissociation constant Kd is 1.1 nM.
B7 gave a Kd of 0.014 nM.
Molecule B8 had a Kd of 0.0078 nM.
Molecule B9 came in with a Kd of 0.0055 nM.

The target in the next assay is T2, human LRRC33-proTGFβ1 complex. Nature of the assay: MSD-SET, hIgG4. On the procedure: as §2
As for B1, the Kd was found to be 6.3 nM.
As to B2, the affinity, expressed as Kd, was 3.2 nM.
Turning to B3, binding was characterised by a dissociation constant (Kd) of 1.1 nM.
B4 yielded a Kd of 3.2 nM.
Turning to B5, the affinity, expressed as Kd, was 5.7 nM.
For B6, the Kd came out at 1.6 nM.
On to B7, for which the Kd came to 0.13 nM.
On to B8, for which the Kd was 0.046 nM.
B9 gave a Kd of 0.043 nM.

Source of the values: US20250215072A1 (published 2025).
